B1: multimeric protein SEQ ID NO: 43 (designed binder)
chain: GVRLWATRQAMLGQVHEVPEGWLIFVAEQEELYVRVQNGFRKVQLEARTPLGGGGSGGGGSGGGGSQDSTSDLIPAPPLSKVPLQQNFQDNQFHGKWYVVGQAGNIRLREDKDPIKMMATIYELKEDKSYDVTMVKFDDKKCMYDIWTFVPGSQPGEFTLGKIKSFPGHTSSLVRVVSTNYNQHAMVFFKFVFQNREEFYITLYGRTKELTSELKENFIRFSKSLGLPENHIVFPVPIDQCIDGGGSGGAPEQKLISEEDLGSHHHHHHHHHH
B2: multimeric protein SEQ ID NO: 41 (designed binder)
chain: QDSTSDLIPAPPLSKVPLQQNFQDNQFHGKWYVVGQAGNIRLREDKDPIKMMATIYELKEDKSYDVTMVKFDDKKCMYDIWTFVPGSQPGEFTLGKIKSFPGHTSSLVRVVSTNYNQHAMVFFKFVFQNREEFYITLYGRTKELTSELKENFIRFSKSLGLPENHIVFPVPIDQCIDGGSPTPTPTTPTPTPTGVRLWATRQAMLGQVHEVPEGWLIFVAEQEELYVRVQNGFRKVQLEARTPLGGSGGAPEQKLISEEDLGSHHHHHHHHHH
B3: multimeric protein SEQ ID NO: 48 (designed binder)
chain: QDSTSDLIPAPPLSKVPLQQNFQDNQFHGKWYVVGQAGNIRLREDKDPIKMMATIYELKEDKSYDVTMVKFDDKKCMYDIWTFVPGSQPGEFTLGKIKSFPGHTSSLVRVVSTNYNQHAMVFFKFVFQNREEFYITLYGRTKELTSELKENFIRFSKSLGLPENHIVFPVPIDQCIDGGGGGSGGGGSGGGGSGVRLWATRQAMLGQVHEVPEGWLIFVAEQEELYVRVQNGFRKVQLEARTPLGGGGSGGGGSGGGGSQDSTSDLIPAPPLSKVPLQQNFQDNQFHGKWYVVGQAGNIRLREDKDPIKMMATIYELKEDKSYDVTMVKFDDKKCMYDIWTFVPGSQPGEFTLGKIKSFPGHTSSLVRVVSTNYNQHAMVFFKFVFQNREEFYITLYGRTKELTSELKENFIRFSKSLGLPENHIVFPVPIDQCIDGGGSGGAPEQKLISEEDLGSHHHHHHHHHH
B4: multimeric protein SEQ ID NO: 39 (designed binder)
chain: QDSTSDLIPAPPLSKVPLQQNFQDNQFHGKWYVVGQAGNIRLREDKDPIKMMATIYELKEDKSYDVTMVKFDDKKCMYDIWTFVPGSQPGEFTLGKIKSFPGHTSSLVRVVSTNYNQHAMVFFKFVFQNREEFYITLYGRTKELTSELKENFIRFSKSLGLPENHIVFPVPIDQCIDGGGGGSGVRLWATRQAMLGQVHEVPEGWLIFVAEQEELYVRVQNGFRKVQLEARTPLGGSGGAPEQKLISEEDLGSHHHHHHHHHH
B5: multimeric protein SEQ ID NO: 49 (designed binder)
chain: QDSTSDLIPAPPLSKVPLQQNFQDNQFHGKWYVVGQAGNIRLREDKDPIKMMATIYELKEDKSYDVTMVKFDDKKCMYDIWTFVPGSQPGEFTLGKIKSFPGHTSSLVRVVSTNYNQHAMVFFKFVFQNREEFYITLYGRTKELTSELKENFIRFSKSLGLPENHIVFPVPIDQCIDGGGGGSGVRLWATRQAMLGQVHEVPEGWLIFVAEQEELYVRVQNGFRKVQLEARTPLGGGGSGGGGSGGGGSQDSTSDLIPAPPLSKVPLQQNFQDNQFHGKWYVVGQAGNIRLREDKDPIKMMATIYELKEDKSYDVTMVKFDDKKCMYDIWTFVPGSQPGEFTLGKIKSFPGHTSSLVRVVSTNYNQHAMVFFKFVFQNREEFYITLYGRTKELTSELKENFIRFSKSLGLPENHIVFPVPIDQCIDGGGSGGAPEQKLISEEDLGSHHHHHHHHHH
B6: multimeric protein SEQ ID NO: 42 (designed binder)
chain: QDSTSDLIPAPPLSKVPLQQNFQDNQFHGKWYVVGQAGNIRLREDKDPIKMMATIYELKEDKSYDVTMVKFDDKKCMYDIWTFVPGSQPGEFTLGKIKSFPGHTSSLVRVVSTNYNQHAMVFFKFVFQNREEFYITLYGRTKELTSELKENFIRFSKSLGLPENHIVFPVPIDQCIDGAEAAAKEAAAKEAAAKAGVRLWATRQAMLGQVHEVPEGWLIFVAEQEELYVRVQNGFRKVQLEARTPLGGSGGAPEQKLISEEDLGSHHHHHHHHHH
B7: multimeric protein SEQ ID NO: 44 (designed binder)
chain: GVRLWATRQAMLGQVHEVPEGWLIFVAEQEELYVRVQNGFRKVQLEARTPLGGGGSQDSTSDLIPAPPLSKVPLQQNFQDNQFHGKWYVVGQAGNIRLREDKDPIKMMATIYELKEDKSYDVTMVKFDDKKCMYDIWTFVPGSQPGEFTLGKIKSFPGHTSSLVRVVSTNYNQHAMVFFKFVFQNREEFYITLYGRTKELTSELKENFIRFSKSLGLPENHIVFPVPIDQCIDGGGSGGAPEQKLISEEDLGSHHHHHHHHHH
B8: multimeric protein SEQ ID NO: 47 (designed binder)
chain: QDSTSDLIPAPPLSKVPLQQNFQDNQFHGKWYVVGQAGNIRLREDKDPIKMMATIYELKEDKSYDVTMVKFDDKKCMYDIWTFVPGSQPGEFTLGKIKSFPGHTSSLVRVVSTNYNQHAMVFFKFVFQNREEFYITLYGRTKELTSELKENFIRFSKSLGLPENHIVFPVPIDQCIDGGGGGSGGGGSGGGGSKPLDGEYFTLQIRGRERFEMFRELNEALELKDAQAGKEPGGSGGAPEQKLISEEDLGSHHHHHHHHHH
B9: multimeric protein SEQ ID NO: 38 (designed binder)
chain: QDSTSDLIPAPPLSKVPLQQNFQDNQFHGKWYVVGQAGNIRLREDKDPIKMMATIYELKEDKSYDVTMVKFDDKKCMYDIWTFVPGSQPGEFTLGKIKSFPGHTSSLVRVVSTNYNQHAMVFFKFVFQNREEFYITLYGRTKELTSELKENFIRFSKSLGLPENHIVFPVPIDQCIDGGGGGSGGGGSGGGGSGVRLWATRQAMLGQVHEVPEGWLIFVAEQEELYVRVQNGFRKVQLEARTPLGGSGGAPEQKLISEEDLGSHHHHHHHHHH
notes: Trivalent; Self-assembled from its monomer polypeptides

molecular target: T1, hu4-1BB-Fc (R&D Systems) (human, UniProt Q07011 24-186); test: SPR (Biacore 8K), hu4-1BB-Fc captured by anti-human IgG Fc; apparent value, 1:1 fit
T1 construct: Bought; also called human 4-1BB; not shown: human IgG Fc of the bought fusion
Procedure: The anti-human IgG Fc antibody (GE Healthcare) was immobilized on a CM5 sensor chip using standard amine chemistry: the carboxyl groups on the chip were activated using 1-ethyl-3-(3-dimethylaminopropyl)-carbodiimide (EDC) and N-hydroxysuccinimide (NHS). Subsequently, anti-human IgG Fc antibody solution (GE Healthcare) at a concentration of 25 μg/mL in 10 mM sodium acetate (pH 5.0) was applied at a flow rate of 5 μL/min until an immobilization level of 4000-10000 resonance units (RU) was achieved. Residual non-reacted NHS-esters were blocked by passing a solution of 1 M ethanolamine across the surface. The reference channel was treated in an analogous manner. Subsequently, hu4-1BB-Fc (R&D Systems) at 0.3 μg/mL was captured by the anti-human IgG-Fc antibody at the chip surface for 180 s at a flow rate of 10 μL/min.
The binding assay was carried out with a contact time of 180 s, a dissociation time of 1200 s or 3000 s and a flow rate of 30 μL/min. All measurements were performed at 25° C. Lipocalin mutein SEQ ID NO: 64 as included in the multimeric proteins was also tested as […]. […] Prior to the protein measurements, three startup cycles were performed for conditioning purposes. Data were evaluated with Biacore Evaluation software. Double referencing was used and the 1:1 binding model was used to fit the raw data.

Kd	koff	kon	Binder
390 pM	4.42e-05 s⁻¹	114000 M⁻¹ s⁻¹	B1
310 pM	2.07e-05 s⁻¹	66200 M⁻¹ s⁻¹	B2
340 pM	2.76e-05 s⁻¹	81600 M⁻¹ s⁻¹	B3
380 pM	2.63e-05 s⁻¹	68800 M⁻¹ s⁻¹	B4
210 pM	1.91e-05 s⁻¹	90200 M⁻¹ s⁻¹	B5
280 pM	1.74e-05 s⁻¹	61300 M⁻¹ s⁻¹	B6
240 pM	2.07e-05 s⁻¹	87500 M⁻¹ s⁻¹	B7
660 pM	6.52e-05 s⁻¹	98700 M⁻¹ s⁻¹	B8
250 pM	2.22e-05 s⁻¹	89200 M⁻¹ s⁻¹	B9

molecular target: T2, human 4-1BB on cells (human, UniProt Q07011 24-255); test: cell-based or functional assay
T2 sequence (Q07011 24-255): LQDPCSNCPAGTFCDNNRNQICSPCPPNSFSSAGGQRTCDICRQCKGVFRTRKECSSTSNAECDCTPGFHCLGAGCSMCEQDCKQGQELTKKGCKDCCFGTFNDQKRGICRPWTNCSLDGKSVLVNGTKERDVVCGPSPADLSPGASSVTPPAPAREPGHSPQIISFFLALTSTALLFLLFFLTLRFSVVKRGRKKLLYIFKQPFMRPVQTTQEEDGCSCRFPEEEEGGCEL

EC50 [nM], 4-1BB bioassay (NFκB-luc2/4-1BB Jurkat luminescence), with HepG2 cells	Binder
0.82 nM	B3
0.9 nM	B5

molecular target: T2, human 4-1BB on cells; test: flow cytometry, Flp-In-CHO::hu4-1BB cells
Procedure: (§1) CHO cells were stably transfected with human 4-1BB, cynomolgus 4-1BB, or a mock control using the Flp-In system (Life Technologies) according to the manufacturer's instructions. Transfected CHO cells were maintained in Ham's F12 medium (Life Technologies) supplemented with 10% Fetal Calf Serum (Biochrom) and 500 μg/ml Hygromycin B (Roth). Cells were cultured in cell culture flasks according to manufacturer's instruction (37° C., 5% CO₂ atmosphere).
(§2) 5×10⁴ cells per well were incubated for 1 h in ice-cold PBS containing 5% fetal calf serum (PBS-FCS). A dilution series of the tested multimeric proteins (SEQ ID NOs: 38-44 and 46-55), the 4-1BB-targeting lipocalin mutein as included in the multimeric proteins (SEQ ID NO: 64) or the GPC3-targeting lipocalin SEQ ID NO: 90 were added to the cells and incubated for 1 h on ice. Cells were washed twice with PBS and then incubated with a rabbit anti-NGAL or a goat anti-human IgG labeled with fluorescent dye Alexa 488 for 30 min on ice. Human IgG4 isotype (SEQ ID NOs: 29 and 30) and lipocalin mutein SEQ ID NO: 8 were tested as a negative control. Cells were subsequently washed and analyzed using iQue Flow cytometer (Intellicyte Screener). Mean geometric fluorescent signals were plotted and fitted with Graphpad software using nonlinear regression (shared bottom, four parameters, variable slope).

EC50	Binder
7370 pM	B2
2980 pM	B3
5870 pM	B4
4990 pM	B5
8500 pM	B6
6640 pM	B7
3810 pM	B8
4890 pM	B9

molecular target: T3, recombinant hu4-1BB-His (human 4-1BB with a C-terminal polyhistidine tag, R&D Systems) (human, UniProt Q07011 24-186); test: ELISA, hu4-1BB-His coated, detection anti-NGAL-HRP
T3 construct: Bought; not shown: C-terminal polyhistidine tag
Procedure: Recombinant hu4-1BB-His (human 4-1BB with a C-terminal polyhistidine tag, R&D Systems) at the concentration of 1 μg/mL in PBS was coated overnight on microtiter plates at 4° C. After washing with PBS-0.05% T (PBS supplemented with 0.05% (v/v) Tween 20), the plates were blocked with 2% BSA (w/v) in PBS-0.1% T (PBS supplemented with 0.1% (v/v) Tween 20) for 1 h at room temperature. After washing with 100 μL PBS-0.05% T five times, exemplary multimeric proteins (SEQ ID NOs: 38-44 and 46-53) or 4-1BB-specific lipocalin mutein as included in the multimeric protein (SEQ ID NO: 64) at different concentrations, ranging from 100 to 0.002 nM, were added to the wells and incubated for 1 h at room temperature, followed by another wash step. Bound molecules under study were detected by incubation with 1:1000 diluted anti-NGAL-HRP in PBS-0.1% T-2% BSA. After an additional wash step, fluorogenic HRP substrate (QuantaBlu, Thermo) was added to each well and the fluorescence intensity was detected using a fluorescence microplate reader.
The results of exemplary experiments are depicted in FIG. 2, together with the fit curves resulting from a 1:1 binding sigmoidal fit, where the EC₅₀ value and the maximum signal were free parameters, and the slope was fixed to one. The observed EC₅₀ values toward the hu4-1BB of all tested multimeric proteins were in the sub nanomolar range.

EC50	Binder
160 pM	B1
190 pM	B2
100 pM	B3
240 pM	B4
130 pM	B5
260 pM	B6
220 pM	B7
100 pM	B8
160 pM	B9

molecular target: T4, cynomolgus 4-1BB on CHO cells (cynomolgus, UniProt A9YYE7 24-254); test: flow cytometry, Flp-In-CHO::cyno4-1BB cells
T4 construct: also called Flp-In-CHO::cyno4-1BB; cynomolgus 4-1BB-expressing CHO cells
T4 sequence (A9YYE7 entry or part of it limits assumed): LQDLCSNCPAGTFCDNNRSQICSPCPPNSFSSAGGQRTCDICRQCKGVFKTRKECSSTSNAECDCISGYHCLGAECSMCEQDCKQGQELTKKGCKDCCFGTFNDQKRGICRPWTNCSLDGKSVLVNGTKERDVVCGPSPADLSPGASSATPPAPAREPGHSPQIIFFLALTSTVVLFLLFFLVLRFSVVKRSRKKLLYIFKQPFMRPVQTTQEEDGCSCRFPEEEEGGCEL
Procedure: as §1, §2

EC50	Binder
5630 pM	B2
2830 pM	B3
3680 pM	B4
2750 pM	B5
6590 pM	B6
5030 pM	B7
3810 pM	B8
5920 pM	B9
